Test [1] concerns CAPNS1 target in human CAPNS1 gene, 293H cells. Briefly: Meganuclease-induced mutagenesis assay at CAPNS1 recognition site. Format: cell-based. Conditions: Empty vector, 1 μM 5-aza-2′-deoxycytidine, CAPNS1 locus. As for the experimental part: The human 293H cells (ATCC) were plated at a density of 1.2×10^6 cells per 10 cm dish in complete medium (DMEM supplemented with 2 mM L-glutamine, penicillin (100 IU/ml), streptomycin (100 μg/ml), amphotericin B (Fongizone: 0.25 μg/ml, Invitrogen-Life Science) and 10% FBS). The cells were pre-treated with 5-aza-deoxycytidine at 0.2 μM or 1 μM, 48 hours before transfection and the treatment was maintained 48 hours post-transfection. The medium was changed every day. The cells were transfected with 3 μg of DNA plasmids encoding meganuclease for RAG or 2.5 μg of each monomer CAPNS1 using Lipofectamine 2000 transfection reagent (Invitrogen) according to the manufacturer's protocol.
The efficiency of the meganuclease to promote mutagenesis at its endogenous recognition site was evaluated by sequencing the DNA surrounding the meganuclease cleavage site. Two days post-transfection, genomic DNA was extracted. 200 ng of genomic DNA were used to amplify (PCR amplification) the endogenous locus surrounding the meganuclease cleavage site. PCR amplification is performed to obtain a fragment flanked by specific adaptor sequences [adaptor A: 5′-[…]-NNNN-3′(SEQ ID NO: 46) and adaptor B, 5′-[…]-3′ (SEQ ID NO: 47)] provided by the company offering sequencing service (GATC Biotech AG, Germany) on the 454 sequencing system (454 Life Sciences). The primers sequences used for PCR amplification were:
RAG_R1: 5′-[…]-[…]-3′ (SEQ ID NO: 58) and CAPNS1_J3: 5′-[…]-NNNN-[…] (SEQ ID NO: 59) and CAPNS1_R3: 5′-[…]-[…]-3′ (SEQ ID NO: 60). Sequences specific to the locus are underlined. The sequence NNNN in primer F1 is a Barcode sequence (Tag) needed to link the sequence with a PCR product. The percentage of PCR fragments carrying insertion or deletion at the meganuclease cleavage site is related to the mutagenesis induced by the meganuclease through NHEJ pathway in a cell population, and therefore correlates with the meganuclease activity at its endogenous recognition site. 5000 to 10000 sequences were analyzed per conditions.

Test [2] deals with C1221 DNA target. Description: In vitro cleavage assay with C1221 duplex, increasing meganuclease concentration. It counts as biochemical. On the procedure:
FIG. 2: In vitro cleavage of unmethylated or methylated C1221 by I-CreI. A constant amount of C1221 (50 nM) was incubated with increasing concentrations of I-CreI (0 to 2 μM) in reaction buffer (10 mM Tris-HCl, 150 mM NaCl, 10 mM MgCl2, pH8) for an hour at 37° C. The reaction was stopped and the remaining uncleaved C1221 was quantify and plotted as function of I-CreI concentration.
FIG. 3: In vitro cleavage of unmethylated or methylated C1221 by I-CreI D75N. 50 nM C1221 containing either 0, 1, 2 or 3 methylated CG was incubated with increasing concentrations of I-CreI D75N (0 to 2 μM) in reaction buffer (10 mM Tris-HCl, 150 mM NaCl, 10 mM MgCl2, pH8) for an hour at 37° C. The reaction was stopped and cleaved and uncleaved C1221 (top and bottom panel respectively) were quantify and plotted as function of I-CreI D75N concentration.
To investigate the influence of C1221 methylation on the nuclease activity of I-CreI, an in vitro cleavage assay with either unmethylated or fully methylated C1221 duplex (SEQ ID NOs: 4-5 and 12-13 respectively) was performed. A constant amount of C1221 duplex (50 nM) was incubated with increasing concentration of I-CreI (0 to 2 μM) in a total volume of 25 μL of reaction buffer (10 mM Tris-HCl, 150 mM NaCl, 10 mM MgCl2, pH8). Cleavage reaction was allowed to proceed 1 hour at 37° C. and then stopped by addition of 5 μL of 6× stop buffer (45% glycerol, 95 mM EDTA, 1.5% (w/v) SDS, 1.5 mg/mL proteinase K and 0.048% (w/v) bromophenol blue) followed by an hour incubation at 37° C. Cleaved and uncleaved DNA products were separated by PAGE using a TGX Any kD precast gel (Bio-Rad), stained with SYBR Green and then quantified using Quantity One software (Bio-Rad).
To investigate the influence of C1221 methylation on the nuclease activity of I-CreI D75N, in vitro cleavage assay with C1221 duplex containing either 0, 1, 2 or 3 methylated CG (SEQ ID NOs: 4-5, 6-7, 8-9, 10-11 respectively) was performed, according to the procedure described for I-CreI wild type.

Like-named read-outs stand apart in the source and are kept apart here.

Turning to `Nc1ncn([C@H]2C[C@H](O)[C@@H](CO)O2)c(=O)n1` [5-aza-2′deoxycytidine, reference compound], the “mutagenesis, PCR fragments carrying a mutation” value in test [1] is 0.22%±0.25; in test [1] (listed as 5-aza-2′-deoxycytidine) it was 0.22% ± 0.25.

B1: I-CreI: wild-type I-CreI meganuclease (… homing endonuclease), SEQ ID NO: 1, recombinant Cterm His-tag (protein, listed as Chlamydomonas reinhardtii)
chain: MNTKYNKEFLLYLAGFVDGDGSIIAQIKPNQSYKFKHQLSLTFQVTQKTQRRWFLDKLVDEIGVGYVRDRGSVSDYILSEIKPLHNFLTQLQPFLKLKQKQANLVLKIIEQLPSAKESPDKFLEVCTWVDQIAALNDSKTRKTTSETVRAVLDSLSEKKKSSP
modifications: C-terminal His-tag
As to B1, the EC50 in test [2] (fully methylated C1221, 1 hour at 37° C., read-out: C50 (concentration of I-CreI needed to cleave 50% of C1221)) is greater than 2000 nM; in test [2] (unmethylated C1221, 1 hour at 37° C., read-out: C50 (concentration of meganuclease needed to cleave 50% of C1221)) it was 100 nM. Besides, the “I-CreI concentration at which C1221 is totally cleaved” value in test [2] (unmethylated C1221) turned out to be 250 nM.

Values taken from patent US20130196320A1, “METHOD FOR IMPROVING CLEAVAGE OF DNA BY ENDONUCLEASE SENSITIVE TO METHYLATION” (CELLECTIS, priority 2010, published 2013).
